*: point of attachment. FITC = O=C1OC2(c3ccc(O)cc3Oc3cc(O)ccc32)c2ccc(NC(=S)*)cc21
Target: T1, 6His-DnaK (E. coli DnaK protein) (E. coli, UniProt P0A6Y8 1-638)
T1 construct: molecular chaperone DnaK of E. coli, from the ASKA expression clone; The functional rows concern endogenous DnaK in E. coli BL21 cells; source: purified from the ASKA expression clone by chromatography on Ni-NTA agarose
Assay: MST; 20 nM fluorescein-labelled peptide incubated with varying concentrations of DnaK; 50 mM Tris pH 7.4, 150 mM NaCl, 10 mM MgCl2, 0.05% Tween-20, 0.05% BSA; 1 h at 20°C; Monolith NT.115; three independent trials
Details: both partners purified

T1 sequence (P0A6Y8 whole entry): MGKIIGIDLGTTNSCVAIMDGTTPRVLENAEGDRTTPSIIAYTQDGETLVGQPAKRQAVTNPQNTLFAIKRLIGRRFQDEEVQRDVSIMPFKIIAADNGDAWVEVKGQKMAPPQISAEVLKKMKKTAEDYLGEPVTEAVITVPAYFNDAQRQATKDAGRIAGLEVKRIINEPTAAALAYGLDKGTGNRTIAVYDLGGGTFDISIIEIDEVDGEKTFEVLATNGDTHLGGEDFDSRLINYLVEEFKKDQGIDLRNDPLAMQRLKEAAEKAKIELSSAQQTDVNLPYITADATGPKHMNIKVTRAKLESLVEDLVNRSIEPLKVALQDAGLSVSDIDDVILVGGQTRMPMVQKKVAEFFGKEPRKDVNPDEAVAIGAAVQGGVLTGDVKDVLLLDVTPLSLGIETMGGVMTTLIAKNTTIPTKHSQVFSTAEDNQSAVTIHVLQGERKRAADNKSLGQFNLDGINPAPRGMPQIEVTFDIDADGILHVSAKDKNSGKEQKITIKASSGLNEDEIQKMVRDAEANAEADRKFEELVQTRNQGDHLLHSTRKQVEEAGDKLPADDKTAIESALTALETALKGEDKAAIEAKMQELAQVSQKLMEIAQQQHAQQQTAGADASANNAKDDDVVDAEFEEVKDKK

Binder | binding result
{FITC}-TEKAKLVIKLLALGKTEQ-NH2 (ARF48 is encoded by a +1 alternate reading frame of an Arabidopsis thaliana cDNA and is not a natural protein; The core decapeptide comes from an aberrant alternate-frame polypeptide, not from a natural protein; also called synthetic KL decapeptide; source: synthetic peptide (Peptide 2.0, Inc.)) [KL peptide, FITC-TEKAKLVIKLLALGKTEQ (KL decapeptide of ARF48 with flanking extensions)] | binds
{FITC}-TEKANRLLLTGKTEQ-NH2 (canonical DnaK peptide substrate NRLLLTG flanked by the N-terminal extension TEKA and the C-terminal extension KTEQ; source: synthetic peptide (Peptide 2.0, Inc.)) [NR peptide, FITC-TEKANRLLLTGKTEQ (canonical DnaK peptide substrate NRLLLTG with flanking extensions)] | binds
